Measured values published in the Immune Epitope Database (IEDB).

Experiments:
Test in all cases: IEDB peptide-MHC binding, purified MHC/competitive/radioactivity; ≥ and ≤ were set here for values at or beyond the usual limits of such assays
HLA-A*02:03 = target: HLA-A*02:03
HLA-A*02:06 = target: HLA-A*02:06
HLA-A*02:01 = target: HLA-A*02:01
HLA-A*68:02 = target: HLA-A*68:02
HLA-A*02:02 = target: HLA-A*02:02
[1] = source organism: Vaccinia virus WR
[2] = source organism: Hepacivirus hominis
[3] = source organism: Mammarenavirus choriomeningitidis
[4] = source organism: Influenza A virus

Sequence | IC50 (HLA-A*02:03; [1]) [nM] | IC50 (HLA-A*02:06; [1]) [nM] | IC50 (HLA-A*02:01; [1]) [nM] | IC50 (HLA-A*68:02; [1]) [nM] | IC50 (HLA-A*02:02; [1]) [nM] | also measured
MLNRVQILM | 27 | 2560 | 28 | 4200 | 4.8 | 
ATLNTLITLI | 28 | 198 | 543 | 1050 | 32 | 
MLLAYLVRI |  |  |  |  |  | IC50 (HLA-A*02:03; [2]): 12 nM; IC50 (HLA-A*02:06; [2]): 5 nM; IC50 (HLA-A*02:01; [2]): 3.3 nM; IC50 (HLA-A*68:02; [2]): 1830 nM; IC50 (HLA-A*02:02; [2]): 6.6 nM
AVANCVRNL | 114 | 1380 | 1200 | 1350 | 66 | 
MQKFTILEYL | 279 | 909 | 3730 | 3730 | 164 | 
TIKESLLKET | 149 | 87 | 85 | 296 | 1580 | 
ALINLVQYRI | 82 | 417 | 30 | 1770 | 8.3 | 
IAACAMLLV |  |  |  |  |  | IC50 (HLA-A*02:03; source organism: SARS-CoV1): 387 nM; IC50 (HLA-A*02:06; source organism: SARS-CoV1): 131 nM; IC50 (HLA-A*02:01; source organism: SARS-CoV1): 567 nM; IC50 (HLA-A*68:02; source organism: SARS-CoV1): 389 nM; IC50 (HLA-A*02:02; source organism: SARS-CoV1): 320 nM
YIILFILFFA | 674 | 1050 | 234 | 270 | 263 | 
IISLFYTFAI | 44 | 146 | 290 | 144 | 108 | 
SVKNLILNFL | 163 | 551 | 2210 | 130 | 1040 | 
QLFKYVPSA | 7.8 | 349 | 7 | 1620 | 12 | 
KLMGHFSWWT |  |  |  |  |  | IC50 (HLA-A*02:03; source organism: SARS-CoV1): 213 nM; IC50 (HLA-A*02:06; source organism: SARS-CoV1): 99 nM; IC50 (HLA-A*02:01; source organism: SARS-CoV1): 6.4 nM; IC50 (HLA-A*68:02; source organism: SARS-CoV1): 2080 nM; IC50 (HLA-A*02:02; source organism: SARS-CoV1): 64 nM
TLLNETAKV | 83 | 11 | 28 | 1670 | 246 | 
AITLVVISVI | 786 | 2000 | 494 | 2380 | 406 | 
IVNCLSLSNL | 128 | 1280 | 1930 | 3590 | 338 | 
SQFSYKELYV | 27 | 71 | 121 | 634 | 14 | 
IALALEQYGI | 4920 | 1130 | 3020 | 2900 | 980 | 
PLISILMIFI | 769 | 2420 | 836 | 915 | 433 | 
FIISTLNKI | 0.42 | 5.8 | 6.1 | 1500 | 1.6 | 
MMMNWSPTTA |  |  |  |  |  | IC50 (HLA-A*02:03; [2]): 6.1 nM; IC50 (HLA-A*02:06; [2]): 849 nM; IC50 (HLA-A*02:01; [2]): 34 nM; IC50 (HLA-A*68:02; [2]): 1140 nM; IC50 (HLA-A*02:02; [2]): 14 nM
RNHLRDLMGV |  |  |  |  |  | IC50 (HLA-A*02:03; [3]): 733 nM; IC50 (HLA-A*02:06; [3]): 107 nM; IC50 (HLA-A*02:01; [3]): 113 nM; IC50 (HLA-A*68:02; [3]): 2820 nM; IC50 (HLA-A*02:02; [3]): 428 nM
IMETIDPVYI | 239 | 349 | 127 | 821 | 29 | 
FVATFRDML | 206 | 487 | 2260 | 12 | 2350 | 
IMAFILGII | 30 | 175 | 166 | 2520 | 17 | 
YIWKSYVHI |  |  |  |  |  | IC50 (HLA-A*02:03; source organism: SARS-CoV1): 13 nM; IC50 (HLA-A*02:06; source organism: SARS-CoV1): 8.9 nM; IC50 (HLA-A*02:01; source organism: SARS-CoV1): 24 nM; IC50 (HLA-A*68:02; source organism: SARS-CoV1): 104 nM; IC50 (HLA-A*02:02; source organism: SARS-CoV1): 86 nM
MIYDLNAVTT | 477 | 429 | 278 | 114 | 897 | 

Sequence | IC50 (HLA-A*02:03; [1]) [nM] | IC50 (HLA-A*02:06; [1]) [nM] | IC50 (HLA-A*02:01; [1]) [nM] | IC50 (HLA-A*68:02; [1]) [nM] | IC50 (HLA-A*02:02; [1]) [nM] | also measured
FMRDEVSFSV |  |  |  |  |  | IC50 (HLA-A*02:03; [2]): 2.7 nM; IC50 (HLA-A*02:06; [2]): 10 nM; IC50 (HLA-A*02:01; [2]): 4 nM; IC50 (HLA-A*68:02; [2]): 2950 nM; IC50 (HLA-A*02:02; [2]): 2.2 nM
HILHAYCGI | 66 | 359 | 1480 | 143 | 123 | 
LMDSIFVSTM | 8.1 | 610 | 259 | 680 | 3.7 | 
IAGGVCYYL | 1680 | 1410 | 1930 | 394 | 53 | 
VTFINDYANL | 247 | 148 | 2480 | 527 | 99 | 
ITDNGPMPYM | 1180 | 303 | 473 | 473 | 828 | 
LVSDCASTI | 17 | 61 | 2740 | 71 | 49 | 
VLALYSPPL | 0.41 | 33 | 0.19 | 1400 | 0.22 | 
NVISKIYTL | 97 | 1.7 | 147 | 4.6 | 147 | 
AIFNNRNLAA | 103 | 774 | 1330 | 2860 | 450 | 
HAFLCLFLL |  |  |  |  |  | IC50 (HLA-A*02:03; source organism: SARS-CoV1): 46 nM; IC50 (HLA-A*02:06; source organism: SARS-CoV1): 1.2 nM; IC50 (HLA-A*02:01; source organism: SARS-CoV1): 2.1 nM; IC50 (HLA-A*68:02; source organism: SARS-CoV1): 10 nM; IC50 (HLA-A*02:02; source organism: SARS-CoV1): 21 nM
ALVSDCAST | 31 | 311 | 115 | 771 | 701 | 
WLLWPVTLA |  |  |  |  |  | IC50 (HLA-A*02:03; source organism: SARS-CoV1): 1.2 nM; IC50 (HLA-A*02:06; source organism: SARS-CoV1): 17 nM; IC50 (HLA-A*02:01; source organism: SARS-CoV1): 6.8 nM; IC50 (HLA-A*68:02; source organism: SARS-CoV1): 151 nM; IC50 (HLA-A*02:02; source organism: SARS-CoV1): 12 nM
IVAAVIIMAI | 2610 | 4510 | 4430 | 95 | 727 | 
DVERLQMAGV | 104 | 776 | 683 | 363 | 215 | 
FTKDGKLDDT | 187 | 898 | 980 | 4080 | 145 | 
SLEATFIDV | 80 | 10 | 182 | 23 | 35 | 
YIPPCQCTV | 445 | 92 | 107 | 228 | 196 | 
DVFRPLFDFV | 2570 | 232 | 1650 | 180 | 1020 | 
NVMGMIGV |  |  |  |  |  | IC50 (HLA-A*02:03; [4]): 512 nM; IC50 (HLA-A*02:06; [4]): 1250 nM; IC50 (HLA-A*02:01; [4]): 1460 nM; IC50 (HLA-A*68:02; [4]): 98 nM; IC50 (HLA-A*02:02; [4]): 1980 nM
GALDVSASV |  |  |  |  |  | IC50 (HLA-A*02:03; source organism: SARS-CoV1): 2.3 nM; IC50 (HLA-A*02:06; source organism: SARS-CoV1): 2.3 nM; IC50 (HLA-A*02:01; source organism: SARS-CoV1): 3.4 nM; IC50 (HLA-A*68:02; source organism: SARS-CoV1): 2.9 nM; IC50 (HLA-A*02:02; source organism: SARS-CoV1): 0.72 nM
YAAEMVEYL | 2.1 | 12 | 32 | 13 | 0.52 | 
IMQVFFGYFA |  |  |  |  |  | IC50 (HLA-A*02:03; source organism: SARS-CoV1): 1570 nM; IC50 (HLA-A*02:06; source organism: SARS-CoV1): 51 nM; IC50 (HLA-A*02:01; source organism: SARS-CoV1): 290 nM; IC50 (HLA-A*68:02; source organism: SARS-CoV1): 4500 nM; IC50 (HLA-A*02:02; source organism: SARS-CoV1): 590 nM
GLSSGFYFEI | 782 | 1740 | 176 | 1720 | 48 | 
TVLTSVDIET | 915 | 961 | 1260 | 2990 | 1720 | 
TMSIYIAVA | 41 | 786 | 136 | 300 | 81 | 
